According to patent US20250326840A1 (QURE BIOTECHNOLOGY SHANGHAI, published 2025):

B1: QP06260279 (bispecific antibody, human IgG1, kappa, L234A L235A)
heavy: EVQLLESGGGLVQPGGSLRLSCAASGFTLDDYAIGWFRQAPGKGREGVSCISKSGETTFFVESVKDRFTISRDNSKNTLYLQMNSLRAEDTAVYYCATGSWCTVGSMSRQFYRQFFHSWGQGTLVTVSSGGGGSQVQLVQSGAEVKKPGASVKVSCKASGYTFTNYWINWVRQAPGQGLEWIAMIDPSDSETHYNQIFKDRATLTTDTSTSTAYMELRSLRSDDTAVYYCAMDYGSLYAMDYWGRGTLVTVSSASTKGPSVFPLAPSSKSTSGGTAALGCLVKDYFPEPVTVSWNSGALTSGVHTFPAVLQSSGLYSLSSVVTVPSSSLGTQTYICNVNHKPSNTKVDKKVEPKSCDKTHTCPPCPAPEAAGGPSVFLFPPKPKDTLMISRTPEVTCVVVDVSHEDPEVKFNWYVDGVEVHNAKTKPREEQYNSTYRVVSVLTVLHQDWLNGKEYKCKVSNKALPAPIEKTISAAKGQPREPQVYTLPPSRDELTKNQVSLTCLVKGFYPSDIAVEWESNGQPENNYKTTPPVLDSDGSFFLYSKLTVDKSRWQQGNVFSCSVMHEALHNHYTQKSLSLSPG
light: DIVLTQSPDSLAVSLGERATINCRASQSVRSSGYNWIFWYQQKPGQPPKLLIYLASNRDSGVPDRFSGSGSGTDFTLTISSLQAEDVAVYYCQHSRELPTFGQGTKLEIKRTVAAPSVFIFPPSDEQLKSGTASVVCLLNNFYPREAKVQWKVDNALQSGNSQESVTEQDSKDSTYSLSSTLTLSKADYEKHKVYACEVTHQGLSSPVTKSFNRGEC
notes: Anti-PD-L1 VHH-G4S fused to the N-terminus of the heavy chain
B2: QP06280279 (bispecific antibody, human IgG1, kappa, L234A L235A)
heavy: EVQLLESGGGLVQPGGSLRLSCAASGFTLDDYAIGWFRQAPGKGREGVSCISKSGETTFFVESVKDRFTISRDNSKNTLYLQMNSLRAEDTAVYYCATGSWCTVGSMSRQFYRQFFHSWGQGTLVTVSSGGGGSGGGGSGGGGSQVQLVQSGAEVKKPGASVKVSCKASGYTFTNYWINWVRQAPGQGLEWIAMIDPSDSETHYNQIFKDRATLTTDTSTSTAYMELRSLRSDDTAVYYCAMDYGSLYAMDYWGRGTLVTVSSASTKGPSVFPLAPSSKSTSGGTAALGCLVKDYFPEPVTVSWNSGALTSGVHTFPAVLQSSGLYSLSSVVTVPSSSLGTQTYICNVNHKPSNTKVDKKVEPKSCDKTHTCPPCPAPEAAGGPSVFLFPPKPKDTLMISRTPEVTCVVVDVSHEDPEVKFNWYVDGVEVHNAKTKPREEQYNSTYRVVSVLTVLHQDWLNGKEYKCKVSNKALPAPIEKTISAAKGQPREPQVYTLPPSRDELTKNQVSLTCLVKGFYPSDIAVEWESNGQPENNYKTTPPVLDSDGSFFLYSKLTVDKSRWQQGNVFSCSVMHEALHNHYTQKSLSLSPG
light: DIVLTQSPDSLAVSLGERATINCRASQSVRSSGYNWIFWYQQKPGQPPKLLIYLASNRDSGVPDRFSGSGSGTDFTLTISSLQAEDVAVYYCQHSRELPTFGQGTKLEIKRTVAAPSVFIFPPSDEQLKSGTASVVCLLNNFYPREAKVQWKVDNALQSGNSQESVTEQDSKDSTYSLSSTLTLSKADYEKHKVYACEVTHQGLSSPVTKSFNRGEC
notes: Anti-PD-L1 VHH-(G4S)3 fused to the N-terminus of the heavy chain
B3: QP06270279 (bispecific antibody, human IgG1, kappa, L234A L235A)
heavy: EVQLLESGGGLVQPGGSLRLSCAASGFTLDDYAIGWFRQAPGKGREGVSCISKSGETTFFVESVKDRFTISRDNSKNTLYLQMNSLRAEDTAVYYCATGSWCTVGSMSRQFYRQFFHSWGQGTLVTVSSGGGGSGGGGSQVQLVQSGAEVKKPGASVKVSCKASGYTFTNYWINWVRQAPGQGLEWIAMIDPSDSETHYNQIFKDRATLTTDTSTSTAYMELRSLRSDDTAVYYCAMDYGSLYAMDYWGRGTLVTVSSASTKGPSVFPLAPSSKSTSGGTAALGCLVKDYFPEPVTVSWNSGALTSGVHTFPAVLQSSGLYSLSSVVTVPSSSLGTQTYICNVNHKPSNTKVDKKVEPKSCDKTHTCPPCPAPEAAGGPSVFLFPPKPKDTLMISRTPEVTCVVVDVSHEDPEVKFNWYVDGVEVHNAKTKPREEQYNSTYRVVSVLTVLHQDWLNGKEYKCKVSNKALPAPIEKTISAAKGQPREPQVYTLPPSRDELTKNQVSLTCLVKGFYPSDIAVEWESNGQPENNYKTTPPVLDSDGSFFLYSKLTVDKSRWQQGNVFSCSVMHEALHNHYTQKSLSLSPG
light: DIVLTQSPDSLAVSLGERATINCRASQSVRSSGYNWIFWYQQKPGQPPKLLIYLASNRDSGVPDRFSGSGSGTDFTLTISSLQAEDVAVYYCQHSRELPTFGQGTKLEIKRTVAAPSVFIFPPSDEQLKSGTASVVCLLNNFYPREAKVQWKVDNALQSGNSQESVTEQDSKDSTYSLSSTLTLSKADYEKHKVYACEVTHQGLSSPVTKSFNRGEC
notes: Anti-PD-L1 VHH-(G4S)2 fused to the N-terminus of the heavy chain
B4: QP32700623 (bispecific antibody, human IgG1, kappa, L234A L235A)
heavy: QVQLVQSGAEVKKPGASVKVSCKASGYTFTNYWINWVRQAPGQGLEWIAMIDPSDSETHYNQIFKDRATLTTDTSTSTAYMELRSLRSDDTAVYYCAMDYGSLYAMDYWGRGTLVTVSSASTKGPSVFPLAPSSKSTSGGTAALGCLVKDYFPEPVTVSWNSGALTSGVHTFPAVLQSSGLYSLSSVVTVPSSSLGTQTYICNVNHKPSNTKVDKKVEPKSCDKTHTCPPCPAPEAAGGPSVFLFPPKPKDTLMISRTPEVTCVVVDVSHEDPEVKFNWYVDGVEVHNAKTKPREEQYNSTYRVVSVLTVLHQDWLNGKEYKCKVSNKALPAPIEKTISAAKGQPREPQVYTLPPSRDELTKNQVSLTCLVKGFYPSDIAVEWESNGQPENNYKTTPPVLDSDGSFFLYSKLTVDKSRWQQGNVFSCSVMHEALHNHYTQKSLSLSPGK
light: EVQLLESGGGLVQPGGSLRLSCAASGFTLDDYAIGWFRQAPGKGREGVSCISKSGETTFFVESVKDRFTISRDNSKNTLYLQMNSLRAEDTAVYYCATGSWCTVGSMSRQFYRQFFHSWGQGTLVTVSSGGGGSDIVLTQSPDSLAVSLGERATINCRASQSVRSSGYNWIFWYQQKPGQPPKLLIYLASNRDSGVPDRFSGSGSGTDFTLTISSLQAEDVAVYYCQHSRELPTFGQGTKLEIKRTVAAPSVFIFPPSDEQLKSGTASVVCLLNNFYPREAKVQWKVDNALQSGNSQESVTEQDSKDSTYSLSSTLTLSKADYEKHKVYACEVTHQGLSSPVTKSFNRGEC
notes: Anti-PD-L1 VHH-G4S fused to the N-terminus of the light chain
B5: QP256291 (antibody, human IgG4, V domains shown)
VH: QVQLVQSGAEVKKPGASVKVSCKASGYTFTNYWINWVRQAPGQGLEWIAMIDPSDSETHYNQIFKDRATLTTDTSTSTAYMELRSLRSDDTAVYYCAMDYGSLYAMDYWGRGTLVTVSS
VL: DIVLTQSPDSLAVSLGERATINCRASKSVGSSGYNWLFWYQQKPGQPPKLLIYLASNRDSGVPDRFSGSGSGTDFTLTISSLQAEDVAVYYCQHSRELPTFGQGTKLEIK
notes: Human IgG4 heavy constant region and kappa CL
B6: QP2561594 (antibody, human IgG4, V domains shown)
VH: QVQLVQSGAEVKKPGASVKVSCKASGYTFTNYWINWVRQAPGQGLEWIAMIDPSDSETHYNQIFKDRATLTTDTSTSTAYMELRSLRSDDTAVYYCAMDYGSLYAMDYWGRGTLVTVSS
VL: DIVLTQSPDSLAVSLGERATINCRASKSVSSSGYNYIFWYQQKPGQPPKLLIYLASNLDSGVPDRFSGSGSGTDFTLTISSLQAEDVAVYYCQHSRDLPTFGQGTKLEIK
notes: as for B5
B7: QP2561581 (antibody, human IgG4, V domains shown)
VH: QVQLVQSGAEVKKPGASVKVSCKASGYTFTNYWINWVRQAPGQGLEWIAMIDPSDSETHYNQIFKDRATLTTDTSTSTAYMELRSLRSDDTAVYYCAMDYGSLYAMDYWGRGTLVTVSS
VL: DIVLTQSPDSLAVSLGERATINCRASKSVSSSGYNYIFWYQQKPGQPPKLLIYLASNLDPGVPDRFSGSGSGTDFTLTISSLQAEDVAVYYCQHSRELPTFGQGTKLEIK
notes: as for B5
B8: QP2561770 (antibody, human IgG4, V domains shown)
VH: QVQLVQSGAEVKKPGASVKVSCKASGYTFTNYWINWVRQAPGQGLEWIAMIDPSDSETHYNQIFKDRATLTTDTSTSTAYMELRSLRSDDTAVYYCAMDYGSLYAMDYWGRGTLVTVSS
VL: DIVLTQSPDSLAVSLGERATINCRASQSVRSSGYNWIFWYQQKPGQPPKLLIYLASNRDSGVPDRFSGSGSGTDFTLTISSLQAEDVAVYYCQESRELPTFGQGTKLEIK
notes: as for B5
B9: QP2561586 (antibody, human IgG4, V domains shown)
VH: QVQLVQSGAEVKKPGASVKVSCKASGYTFTNYWINWVRQAPGQGLEWIAMIDPSDSETHYNQIFKDRATLTTDTSTSTAYMELRSLRSDDTAVYYCAMDYGSLYAMDYWGRGTLVTVSS
VL: DIVLTQSPDSLAVSLGERATINCRASKSVSSSGYNYIFWYQQKPGQPPKLLIYLASNLDSGVPDRFSGSGSGTDFTLTISSLQAEDVAVYYCQESRELPTFGQGTKLEIK
notes: as for B5
B10: QP2561771 (antibody, human IgG4, V domains shown)
VH: QVQLVQSGAEVKKPGASVKVSCKASGYTFTNYWINWVRQAPGQGLEWIAMIDPSDSETHYNQIFKDRATLTTDTSTSTAYMELRSLRSDDTAVYYCAMDYGSLYAMDYWGRGTLVTVSS
VL: DIVLTQSPDSLAVSLGERATINCRASKSVSSSGYNWIFWYQQKPGQPPKLLIYLASNRDSGVPDRFSGSGSGTDFTLTISSLQAEDVAVYYCQESRELPTFGQGTKLEIK
notes: as for B5

Assays:
QP003 (PDL1-his) = experiment: ELISA, QP003 (PDL1-his) captured on coated anti-his, anti-hFc detection; unit from the x axis Log(Conc.(nM))
QP002 [1] = target: T1, QP002 (biotinylated in the blocking assays, sites not given); experiment: blocking ELISA: QP001.2 (CD47) coated, biotin-QP002 (SIRPα-FC) mixed with the antibody, HRP-streptavidin; blocked ligand: CD47; unit from the x axis Log[Conc.(ug/ml)]
T1 construct: also called SIRPα-FC; Biotin-QP002

[2] = target: T2, QP271 (rhesus SIRPα1-flag-his T-557-28) (rhesus monkey); experiment: binding ELISA, antigen coated
T2 construct: also called rhesus monkey SIRPα (QP271); monkeySIRPα1-flag-his
T2 chain: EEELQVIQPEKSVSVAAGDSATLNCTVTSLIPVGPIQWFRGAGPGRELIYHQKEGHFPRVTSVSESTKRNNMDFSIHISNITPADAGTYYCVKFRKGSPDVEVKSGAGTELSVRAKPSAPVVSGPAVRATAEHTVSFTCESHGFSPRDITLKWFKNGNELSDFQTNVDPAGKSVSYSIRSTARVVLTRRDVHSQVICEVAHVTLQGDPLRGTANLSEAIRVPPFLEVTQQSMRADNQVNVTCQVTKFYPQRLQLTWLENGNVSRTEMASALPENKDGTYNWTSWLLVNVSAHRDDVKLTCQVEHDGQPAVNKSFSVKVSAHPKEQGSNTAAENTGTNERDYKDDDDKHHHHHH

QP096 (human SIRPα V2 …) [3] = target: T3, QP096 (human SIRPα V2 ECD(E31-R370)-flag-his) (human); experiment: binding ELISA, antigen coated
T3 construct: the construct carries flag and his tags; also called SIRPαV2-Flag-his; Human SIRPα V2 (QP096)

[4] = target: T4, QP098 (cyno SIRPα (I7G9Z7) ECD(E31-R369)-flag-his) (cynomolgus); experiment: binding ELISA, antigen coated
T4 construct: the construct carries flag and his tags; also called cynoSIRPα (ECD); cynomolgus SIRPα
T4 chain: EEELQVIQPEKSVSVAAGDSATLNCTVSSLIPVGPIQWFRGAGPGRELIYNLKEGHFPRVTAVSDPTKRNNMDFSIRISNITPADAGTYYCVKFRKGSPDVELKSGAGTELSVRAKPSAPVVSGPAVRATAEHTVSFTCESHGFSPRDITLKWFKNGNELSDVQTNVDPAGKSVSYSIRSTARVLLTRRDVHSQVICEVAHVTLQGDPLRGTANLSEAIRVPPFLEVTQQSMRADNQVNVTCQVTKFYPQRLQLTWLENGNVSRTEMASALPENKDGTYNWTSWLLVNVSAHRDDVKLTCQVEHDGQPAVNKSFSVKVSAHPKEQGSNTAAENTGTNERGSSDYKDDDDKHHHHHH

QP094 (human SIRPα V1 …) [5] = target: T5, QP094 (human SIRPα V1 ECD(E31-R370)-flag-his) (human, UniProt P78324 31-370); experiment: binding ELISA, antigen coated
T5 construct: the construct carries flag and his tags; also called SIRPαV1-flag-his; SIRPαV1-his (QP094)

[6] = target: T6, QP273 (cynoSIRPα2-flag-his T-557-14) (cynomolgus); experiment: binding ELISA, antigen coated
T6 construct: also called cynomolgus SIRPα (QP273)
T6 chain: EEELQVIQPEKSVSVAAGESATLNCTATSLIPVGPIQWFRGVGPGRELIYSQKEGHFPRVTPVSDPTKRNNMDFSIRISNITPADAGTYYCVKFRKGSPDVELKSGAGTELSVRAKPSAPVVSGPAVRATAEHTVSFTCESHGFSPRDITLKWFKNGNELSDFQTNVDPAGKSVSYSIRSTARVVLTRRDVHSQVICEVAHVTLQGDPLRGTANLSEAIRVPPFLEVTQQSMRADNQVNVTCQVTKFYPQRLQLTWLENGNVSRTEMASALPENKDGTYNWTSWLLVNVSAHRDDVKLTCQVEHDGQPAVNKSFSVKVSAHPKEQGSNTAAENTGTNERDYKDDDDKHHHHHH

[7] = target: T7, QP100 (cyno SIRPα (G7PGS8) ECD(E29-R368)-flag-his) (cynomolgus); experiment: binding ELISA, antigen coated
T7 construct: the construct carries flag and his tags; also called cynoSIRPα-flag-his; Cynomolgus SIRPα (QP100)
T7 chain: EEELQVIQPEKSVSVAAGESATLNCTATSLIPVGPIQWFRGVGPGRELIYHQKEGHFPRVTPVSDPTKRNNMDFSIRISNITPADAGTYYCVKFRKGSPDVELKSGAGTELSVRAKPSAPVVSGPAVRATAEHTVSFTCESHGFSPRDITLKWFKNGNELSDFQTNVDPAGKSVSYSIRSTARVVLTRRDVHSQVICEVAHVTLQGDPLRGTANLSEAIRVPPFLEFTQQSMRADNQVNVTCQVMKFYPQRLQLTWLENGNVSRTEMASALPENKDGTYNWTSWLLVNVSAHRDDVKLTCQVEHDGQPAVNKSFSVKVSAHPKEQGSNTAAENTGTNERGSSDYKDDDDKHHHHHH

QP002 [8] = target: T1, QP002; experiment: blocking ELISA: QP001.2 (CD47) coated, biotin-QP002 (SIRPα-FC) mixed with the antibody, HRP-streptavidin; blocked ligand: CD47
QP096 (human SIRPα V2 …) [9] = target: T3, QP096 (human SIRPα V2 …); experiment: SPR, Biacore
QP094 (human SIRPα V1 …) [10] = target: T5, QP094 (human SIRPα V1 …); experiment: SPR, Biacore
[11] = target: T2, QP271 (rhesus SIRPα1-flag-his T-557-28); experiment: SPR, Biacore
[12] = target: T4, QP098 (cyno SIRPα (I7G9Z7) …); experiment: SPR, Biacore
[13] = target: T6, QP273 (cynoSIRPα2-flag-his T-557-14); experiment: SPR, Biacore

T3 sequence (chain, as listed by the source limits assumed): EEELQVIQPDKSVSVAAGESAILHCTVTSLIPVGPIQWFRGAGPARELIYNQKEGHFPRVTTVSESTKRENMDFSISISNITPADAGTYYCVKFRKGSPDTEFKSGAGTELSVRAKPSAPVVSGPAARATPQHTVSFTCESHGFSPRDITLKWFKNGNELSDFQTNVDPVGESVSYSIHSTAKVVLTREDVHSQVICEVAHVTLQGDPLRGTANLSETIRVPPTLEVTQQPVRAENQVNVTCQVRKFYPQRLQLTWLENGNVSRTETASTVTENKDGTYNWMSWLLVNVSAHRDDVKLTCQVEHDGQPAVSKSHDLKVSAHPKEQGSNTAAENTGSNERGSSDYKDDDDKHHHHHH
T5 sequence (P78324 other isoform, or with tags, fused parts or gaps limits assumed): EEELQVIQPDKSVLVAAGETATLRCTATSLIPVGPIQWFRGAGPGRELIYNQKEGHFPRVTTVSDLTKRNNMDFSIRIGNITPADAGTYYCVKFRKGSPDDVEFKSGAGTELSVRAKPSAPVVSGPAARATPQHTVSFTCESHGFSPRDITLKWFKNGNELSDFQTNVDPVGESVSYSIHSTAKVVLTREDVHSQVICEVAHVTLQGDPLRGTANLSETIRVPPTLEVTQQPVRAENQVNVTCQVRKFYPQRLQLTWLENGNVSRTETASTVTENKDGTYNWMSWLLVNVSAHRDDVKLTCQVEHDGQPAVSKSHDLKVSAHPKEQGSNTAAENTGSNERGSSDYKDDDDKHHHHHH
T1 sequence (SIRPα-Fc fusion chain, as listed by the source): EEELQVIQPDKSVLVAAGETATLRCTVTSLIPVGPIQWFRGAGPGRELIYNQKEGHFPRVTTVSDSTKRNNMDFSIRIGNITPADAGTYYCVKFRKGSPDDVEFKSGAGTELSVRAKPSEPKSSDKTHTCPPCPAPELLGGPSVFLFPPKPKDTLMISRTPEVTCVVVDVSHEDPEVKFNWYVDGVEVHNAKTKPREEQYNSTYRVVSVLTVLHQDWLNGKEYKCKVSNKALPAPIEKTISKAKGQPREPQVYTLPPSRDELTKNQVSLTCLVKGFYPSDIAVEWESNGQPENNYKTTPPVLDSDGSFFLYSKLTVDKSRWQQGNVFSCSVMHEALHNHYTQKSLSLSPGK
Chain of QP003 (PDL1-his) (chain, as listed by the source limits assumed): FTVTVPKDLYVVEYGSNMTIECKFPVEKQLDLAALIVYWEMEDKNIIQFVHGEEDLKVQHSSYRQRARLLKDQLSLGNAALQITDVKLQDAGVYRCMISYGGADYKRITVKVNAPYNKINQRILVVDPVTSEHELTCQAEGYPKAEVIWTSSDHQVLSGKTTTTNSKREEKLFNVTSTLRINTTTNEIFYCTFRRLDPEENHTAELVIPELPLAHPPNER

Row | Binder | EC50 (QP003 (PDL1-his)) [pM] | IC50 (QP002 [1]) [ng/mL] | EC50 [2] [ng/mL] | EC50 (QP096 (human SIRPα V2 …) [3]) [ng/mL] | EC50 [4] [ng/mL] | EC50 (QP094 (human SIRPα V1 …) [5]) [ng/mL] | EC50 [6] [ng/mL] | EC50 [7] [ng/mL] | IC50 (read off the curve) (QP002 [8]) [ng/mL] | Kd (QP096 (human SIRPα V2 …) [9]) [pM] | Kd (QP094 (human SIRPα V1 …) [10]) [pM] | Kd [11] [pM] | Kd [12] [pM] | Kd [13] [pM]
1 | B1 | 17.6 | – | – | – | – | – | – | – | – | – | – | – | – | –
2 | B2 | 21.5 | – | – | – | – | – | – | – | – | – | – | – | – | –
3 | B3 | 19.8 | – | – | – | – | – | – | – | – | – | – | – | – | –
4 | B4 | 20.5 | – | – | – | – | – | – | – | – | – | – | – | – | –
5 | B5 | – | 23.4 | 1.17 | 1.43 | 1.57 | 1.86 | 1.62 | 1.18 | – | – | – | – | – | –
6 | B6 | – | – | 0.807 | 1.05 | 1.13 | 1.12 | 2.35 | 0.983 | ~20 | – | – | – | – | –
7 | B7 | – | – | 0.555 | 0.862 | 0.918 | 1.07 | 0.921 | 0.758 | ~20 | 176 | 137 | – | – | –
8 | B8 | – | 25 | 1.21 | 1.36 | 1.3 | 1.61 | 1.68 | 1.01 | – | 36.8 | 28.8 | 100 | 256 | 163
9 | B9 | – | – | 0.967 | 1.11 | 1.2 | 1.05 | 1.03 | 1.23 | ~20 | 89.1 | 59.7 | 1740 | 4220 | 2220
10 | B10 | – | 23.3 | 1.13 | 1.13 | 1.08 | 1.15 | 1.22 | 1.13 | – | – | – | – | – | –
